Measurements: US20230052153A1 (NEWSOUTH INNOVATIONS, published 2023)

T1: human FcγRIIa receptor (human, UniProt P12318 34-317)
T1 construct: whole, on cells; also called CD32
T1 sequence (looked up): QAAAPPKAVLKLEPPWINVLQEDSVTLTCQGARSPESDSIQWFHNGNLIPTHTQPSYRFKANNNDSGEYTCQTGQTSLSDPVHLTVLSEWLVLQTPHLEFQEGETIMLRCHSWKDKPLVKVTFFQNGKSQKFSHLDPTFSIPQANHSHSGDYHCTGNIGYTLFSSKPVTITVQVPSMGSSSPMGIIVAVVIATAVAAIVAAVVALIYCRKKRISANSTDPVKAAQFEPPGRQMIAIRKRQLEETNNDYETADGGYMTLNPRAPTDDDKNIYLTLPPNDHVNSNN

B1: HRU2 (HRU1 linked to bivalirudin) (scFv)
scFv: EVKLVESGPELKKPGETVKISCKASGYTFTNYGMNWVKQAPGKGLKWMGWLNTYTGESIYPDDFKGRFAFSLETSASTAYLQINNLKSEDTATYFCARGDYGYDDPLDYWGQGTSVTVSSGGGGSGGGGSGGGGSDIVMTQAPPSVPVTPGESVSISCRSSKSLLHTNGNTYLHWFLQRPGQSPRLLIYRMSVLASGVPDRFSGSGSGTAFTLSISRVEAEDVGVYYCMQHLEYPLTFGAGTKLEIKRAGGGGSGGGGSGGGGFPRPGGGGNGDFEEIPEEYL
notes: scFv fused to bivalirudin; also called H2
B2: HRU4 (HRU1 with mutations) (scFv)
scFv: EVQLVESGPELKKPGETVKISCKASGYTFTNYGMNWVKQAPGKGLKWMGWLNTYTGESIYPDDFKGRFAFSLETSASTAYLQINNLKSEDTATYFCARGDYGYDDPLDYWGQGTSVTVSSGGGGSGGGGSGGGGSDIVMTQAPPSVPVTPGESVSISCRSSKSLLHTNGNTYLHWFLQKPGQSPRLLIYRMSVLASGVPDRFSGSGSGTDFTLKISRVEAEDVGVYYCMQHLEYPLTFGAGTKLEIKRAEQKLISEEDL
notes: also called H4

Biological target: T1, human FcγRIIa receptor
Test: flow cytometry on human platelets, 2 µM scFv, detected with anti-c-Myc-AF-488
Protocol: Platelet-rich plasma (PRP) was obtained from whole blood after centrifugation at 200×g for 10 minutes. Washing/Suspension buffer (PBS, 0.5% BSA, 25 mM EDTA, pH 6.8) was used for platelet preparation throughout the experiment. 4 μl of PRP was incubated with HRU molecules (2 μM) for 30 minutes. Cells were washed once with 500 μl of buffer (PBS, 0.5% BSA, 25 mM EDTA, pH 6.8) and incubated with anti-c-Myc-AF-488. After washing, platelets were suspended in 200 μl of PBS and analyzed by flow cytometry (CantoII, BD Biosciences). Anti-c-Myc-AF-488 in the absence of HRU was used as negative control.

| Binder | binding result |
| --- | --- |
| B1 | binds |
| B2 | binds |
